Test results taken from patent publication US20220177835A1, “METHODS OF GENERATING AND ISOLATING MIDBRAIN DOPAMINE NEURONS” (MEMORIAL SLOAN-KETTERING CANCER CENTER, priority 2019, published 2022).

B1: FGF18: FGF activator; member of the FGF8 subfamily of secreted signaling proteins (protein, UniProt O76093 28-207, looked up)
Fibroblast growth factor 18: EENVDFRIHVENQTRARDDVSRKQLRLYQLYSRTSGKHIQVLGRRISARGEDGDKYAQLLVETDTFGSQVRIKGKETEFYLCMNRKGKLVGKPDGTSKECVFIEKVLENNYTALMSAKYSGWYVGFTKKGRPRKGPKTRENQQDVHFMKRYPKGQPELQKPFKYTTVTKRSRRIRPTHPA

Experiments:
rodent GSK3β homologs = settings: cited from earlier work
[1] = system: stem-cell-derived midbrain DA neurons and precursors; assay: Marker expression in stem-cell-derived mDA differentiation under Wnt-Boost protocol with added FGF; type: cell-based, human
Excerpt: Midbrain DA neurons and precursors thereof were derived from stem cells under a Wnt-Boost protocol previously disclosed (the “7.5 M bump protocol (modification of GMP V2B)” protocol disclosed in International Publication No. WO 2016/196661, which is incorporated by reference in its entirety), which is referred to as “Wnt-Boost protocol” or “Boost protocol” hereinafter. It was discovered that EN1 expression was decreased starting from day 11 of the differentiation with Wnt-Boost protocol (see FIG. 1). Maintaining EN1 expression in the differentiated cells is important to generate mature and functional midbrain DA neurons. Thus, to maintain EN1 expression, the present example tested adding FGF8b treatment to the Wnt-Boost protocol at a late time of differentiation (see FIG. 2). Cells were contacted with FGF8b from day 9 to day 16, from day 10 to day 16, from day 11 to day 16, from day 12 to day 16, from day 13 to day 16, from day 14 to day 16, or from day 15 to day 16, in addition to the Wnt-Boost protocol, were tested. […] EN1 positive cells also expressed FOXA2 and LMX1A. […] SIX1 immuno-staining of the cells on day 30 of differentiation confirmed the mRNA results (see FIG. 5).
FGF8b, FGF17, and FGF18 were tested by being added them to the cell culture from day 12 to day 16 at a concentration of 100 ng/ml under the WNT-Boost protocol.

[2] = system: MEL1 hPSC derived CD49e weak mDAs; assay: mRNA expression in CD49e sorted cells (WNT-Boost vs WNT-boost+FGF18); type: cell-based, human; settings: WNT-boost+FGF18 (day 12-day 16) vs WNT-Boost
Procedure: CD49e marker was tested in another hPSC line MEL1 for purifying midbrain DA neuron. Substantially pure mDA morphology was discovered in cells sorted with CD49e (Negative and/or weak expression) on day 25 of differentiation and continuously cultured for another 15 days (day 40 of differentiation) under the WNT-boost protocol and the WNT-boost+FGF18 (day 12-day 16) protocol (see FIGS. 19-20). These sorted mDAs had high TH immune-staining (see FIG. 21).

[3] = system: grafted differentiated cells in mouse; assay: In vivo graft of differentiated cells (WNT-boost vs WNT-boost+FGF18) into intact mouse
Excerpt: The in vivo survival of differentiated cells generated from WNT-boost+FGF18 protocol was examined. Cells generated from WNT-boost and WNT-boost+FGF18 protocols were grafted into intact mouse […].

[4] = system: grafted NURR1:GFP sorted mDAs; assay: Transplantation of NURR1:GFP sorted mDAs to immuno-deficient mice; type: in vivo, mouse
Excerpt: (§1) These sorted cells were transplanted to immuno-deficient mice.

[5] = system: NURR1:GFP hPSC derived mDAs; assay: mRNA expression in NURR1:GFP sorted mDAs (WNT-Boost vs WNT-Boost+FGF18); type: cell-based, human; settings: WNT-Boost+FGF18 (day 12-day 16) vs WNT-Boost
Procedure: NURR1:GFP hPSCs were then cultured under WNT-Boost and WNT-boost+FGF18 (day 12-day 16) protocols. NURR1:GFP positive cells were isolated on day 25 of differentiation followed by continuous culturing until day 40. On day 40 of differentiation, these midbrain DA neurons expressed high TH along with FOXA2 (see FIG. 12).
as §1

Molecule | IC50 values against rodent GSK3β homologs (rodent GSK3β homologs) | mRNA expression level of SMA ([1]; day 16 of differentiation, 100 ng/ml from day 12 to day 16, compared with FGF8b) | EN1 protein expression (immunostaining) ([1]; day 16 of differentiation, FGF added from day 9-15 to day 16 to Wnt-Boost protocol) | EN1 expression at the mature stage of differentiation ([1]; day 27 and day 40 (FIG. 8)) | expression levels of SMA1 and SIX1 ([1]; mature stage, FGF18 vs FGF8b treated cells) | expression level of PITX2 ([1]; mature stage, compared to cells differentiated by the WNT-Boost protocol) | mRNA expression level of EN1 [2] | mRNA expression level of PITX2 [2] | striatal innervation with fibers ([3]; 1 month post grafting, WNT-boost+FGF18 vs WNT-boost) | maintenance of EN1 expression in vivo ([3]; cells from WNT-boost+FGF18 protocol vs WNT-boost protocol, grafted) | neurite outgrowth from grafted region ([4]; FGF18 treated cells (WNT-Boost+FGF18 protocol) vs WNT-Boost) | cell survival of graft ([4]; sorted mDAs from WNT-Boost+FGF18 (day 12-day 16) protocol) | mRNA expression level of EN1 [5]
Cc1c[nH]c(-c2cnc(NCCNc3ccc(C#N)cn3)nc2-c2ccc(Cl)cc2Cl)n1 [CHIR99021, 6-(2-(4-(2,4-dichlorophenyl)-5-(4-methyl-1H-imidazol-2-yl)pyrimidin-2-ylamino)ethylamino)nicotinonitrile] | nanomolar | – | – | – | – | – | – | – | – | – | – | – | –
B1 | – | reduced mRNA expression level of SMA | highly maintained in a FGF18 contacting duration dependent manner | still highly maintained | less expression levels of SMA1 and SIX1 than FGF8b treated cells | reduced expression level of PITX2 | higher expression level of EN1 | lower expression level of PITX2 | better striatal innervation | improved maintenance of EN1 expression in vivo | better neurite outgrowth from grafted region | excellent cell survival | higher expression level of EN1
